Data: article PMC4805542

Tested on: ZF6-DB (synthetic construct)
Assay: EMSA
Conditions: 1.5 uM protein, DNA titrated 145-250 nM; apparent Kd, Scatchard; 6.25 mM MgCl2; 25 mM Hepes pH 7.9, 50 mM KCl, 6.25 mM MgCl2, 1% Nonidet P-40, 5% glycerol; 15 min on ice; 5% PAGE in 0.5x TBE at 4 C

Substance: hRHO 65 bp duplex oligonucleotide
- Kd: 41.9 nM
